Assays:
A15.5R82_Axle (C3-C3) = target: T1, A15.5R82_Axle (C3-C3); test: single particle cryoEM of the assembled rotor (6.5 Å)
T1 construct: C3 homotrimeric axle with DHR arms; also called C3 axle
T1 chain: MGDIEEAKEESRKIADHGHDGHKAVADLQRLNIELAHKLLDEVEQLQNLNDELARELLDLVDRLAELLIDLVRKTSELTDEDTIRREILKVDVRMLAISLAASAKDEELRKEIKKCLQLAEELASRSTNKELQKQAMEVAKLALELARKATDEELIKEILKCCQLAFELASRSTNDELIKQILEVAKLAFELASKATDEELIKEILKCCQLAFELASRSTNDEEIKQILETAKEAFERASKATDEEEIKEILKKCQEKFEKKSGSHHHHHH
Experimental: Multiple datasets were collected for each design and combined early on during processing. See table 1 and processing flowcharts for details. Briefly, images were manually curated to remove poor quality acquisitions such as bad ice or large regions of carbon. Dose-weighting and image alignment of all 50 frames was carried out using MotionCor2 (56) with 5×5 patch or with cryosparc v2 patch alignment tool with default parameters. Super-resolution krios data was binned 2X during alignment. Initial CTF parameters were estimated using CTFfind4 (57). Particle picking was done with a gaussian blob picker and in some cases followed by a template picker. Particles were extensively classified in 2D to remove junk particles and designs which may not have been intact or were damaged, yielding in some cases relatively few particles. […] In addition, the expected motion of the rotors may have introduced further heterogeneity, limiting classification efforts. Starting models for all designs were always obtained ab initio, despite clear evidence of the expected design in 2D. […] FSC 0.143 curves were generated by exporting half maps to relion for post-process. […] For density modification in Phenix (59), we used as input the exported half maps from cryosparc with default params at 100 bins and local filtering with a factor of 5. […] Directional FSC calculated using remote 3DF SC processing tool. […]

C5C3_3250_Axle (C5-C3) = target: T2, C5C3_3250_Axle (C5-C3); test: SEC, SAXS, biolayer interferometry binding kinetics and negative stain EM
T2 construct: C5 homopentameric axle; For biolayer interferometry it was Avi-tagged and biotinylated; also called C5 axle
T2 chain: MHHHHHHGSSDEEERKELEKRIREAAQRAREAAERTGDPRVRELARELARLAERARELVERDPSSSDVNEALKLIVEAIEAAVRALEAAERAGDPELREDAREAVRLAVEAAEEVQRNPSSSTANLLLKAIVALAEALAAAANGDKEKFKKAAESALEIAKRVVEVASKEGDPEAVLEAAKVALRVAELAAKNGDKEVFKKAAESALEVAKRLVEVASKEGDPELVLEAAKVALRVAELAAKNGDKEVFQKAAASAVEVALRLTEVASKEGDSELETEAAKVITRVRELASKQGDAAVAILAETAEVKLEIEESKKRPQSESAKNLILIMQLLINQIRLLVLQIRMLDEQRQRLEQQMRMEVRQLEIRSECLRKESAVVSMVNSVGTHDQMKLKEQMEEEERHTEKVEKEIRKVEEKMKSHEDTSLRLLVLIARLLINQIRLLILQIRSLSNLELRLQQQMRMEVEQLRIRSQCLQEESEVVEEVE
Experimental: (§1) FIG. 13. Biolayer interferometry assays measuring in vitro assembly of ring and axle parts into a full rotary system. For each 6 designs, the equilibrium binding curves from biolayer interferometry binding assays is shown on the left and the corresponding Biolayer interferometry kinetic binding traces shown on the right. Biotinylated axles were immobilized on the tip and the binding in a solution of fre rings was measured. For both D3-C5 and D3-C3, a fresh ring solution was prepared by buffer exchange from citrate buffer to TBS with reducing agent, and immediately used for binding assays.
(§2) Protein samples were purified by SEC in 25 mM Tris pH 8.0, 25 mM NaCl and 1% glycerol; elution fractions corresponding to the protein were further concentrated using 3K protein concentrators (Millipore Sigma) and the flow-through was used as blank for buffer subtraction. SAXS Scattering measurements were performed at the SIBYLS 12.3.1 beamline at the Advanced Light Source. […] Collected data were processed using the SAXS FrameSlice™ online server and analysed using the ScÅtter software package(23). […]

[1] = target: T3, C8D8_6_49_119RC4_20_Axle (C8-C4); test: as above
T3 construct: C8 homooctameric axle, the circular permutation version of the D8 axle; For biolayer interferometry it was Avi-tagged and biotinylated; also called C8 axle
T3 chain: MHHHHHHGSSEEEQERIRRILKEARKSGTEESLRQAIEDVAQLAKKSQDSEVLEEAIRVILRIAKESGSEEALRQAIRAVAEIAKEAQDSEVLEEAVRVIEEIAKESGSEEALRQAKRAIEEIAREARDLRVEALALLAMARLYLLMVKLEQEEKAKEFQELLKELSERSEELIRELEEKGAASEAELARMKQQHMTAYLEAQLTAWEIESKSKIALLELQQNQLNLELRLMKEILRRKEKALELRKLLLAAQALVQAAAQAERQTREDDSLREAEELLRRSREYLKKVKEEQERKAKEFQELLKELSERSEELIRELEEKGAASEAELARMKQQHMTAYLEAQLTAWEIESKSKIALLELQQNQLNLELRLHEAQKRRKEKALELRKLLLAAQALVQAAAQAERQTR
Experimental: as §1, §2

[2] = target: T4, A113_c2arms9_Axle (D3-C5); test: EM, biolayer interferometry, SEC and SAXS of the assembled rotor
T4 construct: De novo designed D3 homohexameric axle; For biolayer interferometry it was Avi-tagged and biotinylated; also called D3 axle; axle of the D3-C5 rotor
T4 chain: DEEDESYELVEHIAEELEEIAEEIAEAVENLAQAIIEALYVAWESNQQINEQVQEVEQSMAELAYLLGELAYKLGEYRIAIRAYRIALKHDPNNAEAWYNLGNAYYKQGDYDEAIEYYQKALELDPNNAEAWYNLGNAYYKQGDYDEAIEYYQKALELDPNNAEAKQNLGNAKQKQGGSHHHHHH
Experimental: as §1, §2

B1: A15.5R82_Ring (C3-C3) (designed binder)
chain: MGVEELLLLARAAHHSGTTVEEAYKLAKKLGISVKELLLLARAAHNSGTTVEEAYKLALKLGISVEELLLLAKAAHYSGTTVEEAYKLALELGISVRELLLLAKAAHFAGRTVREAYALELALGALRLEDRARELIKEAEKKGDPEKLREALEALEEAVRLVEEAIKLRPDMDLAVEIAVRLARMLKRVAELLQELAKKTGDPELLKLALRALEVAVRAVELAIKSNPDNDEAVETAVRLARELKKVAEELQERAKKTGDPELLKLALRALEVAVRAVELAIKSNPDNEEAVETAKRLAEELRKVAELLEERAKETGDPELQELAKRAKEVADRARELAKKSGSHHHHHH
notes: C3 ring of three subunits, each fused to DHR82; also called C3 ring
B1: binds (A15.5R82_Axle (C3-C3)).

B2: C5C3_3250_Ring (C5-C3) (designed binder)
chain: MGNRSLHANKLKTHLENLREHLKRLDEHAKQLRDILSEHPHDERVKDSIDLLEESVRIVKISIKIFEASVRALLWAINKEAEELAKSPDPADLERAVRLAAAVVRADPGSNLSKKALEIILRAAAELAKLPDPKALAAAAEAASRVQREQPGSNLAKAAQEIMRQASRAAEEAARRAKETLEKAEKDGDPRTALQAVMTVVEVAKALNIIATMAGSEEAQERAARVAAEAAELALRVFELAEKQGDPEVAHNARKLIEIVLHILLQILTQILETATKIIREANELLEKHRRSHHHDPKLVETHVELVKRHERLVRQHLKIALMHALAVLELAFPDAEAAKLASKAAKEAEELCKQSTDERLCDLLAELAALLIELAARYPDSEAAKLALKAALEAIELCKQSTDEELCEELVKLAQKLIELAKRYPDSEEAKRALKEAKELIEQCKESTDEDECRELVKRAEELIREAKEGSHHHHHH
notes: C3 homotrimeric ring; also called C3 ring
B2: binds (C5C3_3250_Axle (C5-C3)).

B3: C8D8_6_49_119RC4_20_Ring (C8-C4) (designed binder)
chain: MGCDAIQAAAALGEAGISSNEILELLAAAAELGLDPDAIQAAAQLGEAGISSEEILELLRAAHELGLDPDAIAAAADLGQAGISSEEILELLRAAHELGLDPDAIQAAAALGEAGISSEEILELLRAAHELGLDPDAIQAAAQLGEAGISSEEILELLRAAHELGLDPDCIAAAADLGQAGISSSEITALLLAAAAIELAKRADDKDVREIVRDALELASRSTNDEVIRLALEAAVLAARSTDSDVLEIVKDALELAKQSTNEEVIKLALKAAVLAAKSTDEEVLEEVKEALRRAKESTDEEEIKEELRKAVEEAEGSHHHHHH
notes: C4 ring of four subunits; also called C4 ring
B3: binds [1].

B4: A113_c2arms9_Ring (D3-C5) (designed binder)
chain: MGDRSEHAKKLKTFLENLRRHLDRLDKHIKQLRDILSENPEDERVKDVIDLSERSVRIVKTVIKIFEDSVRELEKAILWLAEELAKSPDPEDLKRAVELARAVIEANPGSNLSRKAMEIIERAARELSKLPDPEAQRTAIEAASQLATMAAATGNTDQVRRAAELMVEIARLAGTEEAQDLALDALLDVLETALQIATKIIDDANKLLEKLRRSERKDPKVVETYVELLKRHEEAVRLLLEVARVHEELVRFTIIEEKVRSPDCEDIRDAVREAEELLRENPSEMAEELLRRAIEAAVRCPDCEAIREAVRAAEELLRENPSTEAEELLRRAIEAAVRCPDCEAIREAVRAAEELLRENPSEEAKELLRRAIESAKKCPDPEAQREAKRAEEELRKEGSHHHHHH
notes: De novo designed C5 homopentameric ring; also called C5 ring; ring of the D3-C5 rotor
B4: binds [2].

Source: patent US20240010687A1 (University of Washington, published 2024)
